Results from patent US20120316071A1.
Each block holds one substance with its values, some of them ahead of it.

Tests used:
[1] = target: rHuman Erythropoietin R/Fc Chimera, CF (R&D Systems Cat#963-ER) (human) (UniProt P19235); test: ECL multispot (MSD), antigen spotted, Fab in solution
[2] = target: rHuman Notch-1/Fc Chimera, CF (R&D Systems Cat#3647-TK) (human) (UniProt P46531); test: as above
[3] = target: rHuman CD44/Fc Chimera, CF (R&D Systems Cat#3660-CD) (human) (UniProt P16070); test: as above
[4] = target: rHuman HGF R/c-MET/Fc Chimera, CF (R&D Systems Cat#358-MT/CF) (human) (UniProt P08581); test: as above
Chain of rHuman HGF R/c-MET/Fc Chimera, CF (R&D Systems Cat#358-MT/CF) (human) (P08581 25-932, change not shown): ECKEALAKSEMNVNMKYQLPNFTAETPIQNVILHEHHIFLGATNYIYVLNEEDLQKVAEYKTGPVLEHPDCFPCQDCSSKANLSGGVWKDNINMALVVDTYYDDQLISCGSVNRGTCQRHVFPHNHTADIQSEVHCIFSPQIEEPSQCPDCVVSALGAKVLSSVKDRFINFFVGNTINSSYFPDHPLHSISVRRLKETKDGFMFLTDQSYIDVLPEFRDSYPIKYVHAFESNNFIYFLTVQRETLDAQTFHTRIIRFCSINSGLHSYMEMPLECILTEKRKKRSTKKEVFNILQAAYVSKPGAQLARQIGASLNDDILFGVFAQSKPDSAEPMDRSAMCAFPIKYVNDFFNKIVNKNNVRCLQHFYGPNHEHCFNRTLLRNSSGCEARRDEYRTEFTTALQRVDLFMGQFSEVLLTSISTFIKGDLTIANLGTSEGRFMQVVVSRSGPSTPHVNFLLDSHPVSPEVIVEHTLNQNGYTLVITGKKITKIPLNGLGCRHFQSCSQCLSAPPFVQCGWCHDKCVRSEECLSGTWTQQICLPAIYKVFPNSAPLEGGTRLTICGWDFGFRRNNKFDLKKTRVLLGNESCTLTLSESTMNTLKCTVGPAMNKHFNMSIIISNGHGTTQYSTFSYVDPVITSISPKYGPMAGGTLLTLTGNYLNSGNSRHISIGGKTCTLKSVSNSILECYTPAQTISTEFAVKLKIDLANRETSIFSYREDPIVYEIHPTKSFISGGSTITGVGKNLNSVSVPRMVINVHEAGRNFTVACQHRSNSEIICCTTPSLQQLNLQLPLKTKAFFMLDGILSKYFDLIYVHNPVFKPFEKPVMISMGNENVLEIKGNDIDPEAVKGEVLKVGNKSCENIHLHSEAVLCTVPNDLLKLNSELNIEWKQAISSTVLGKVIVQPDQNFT

[5] = target: Recombinant Human DLL4 (R&D Systems Cat#1506-D4/CF) (human) (UniProt Q9NR61); test: as above
[6] = target: rHuman IGF-1 sR, CF (R&D Systems Cat#391-GR) (human) (UniProt P08069); test: as above
[7] = target: rHuman P-Cadherin/Fc Chimera, CF (R&D Systems Cat#861-PC) (human) (UniProt P22223); test: as above
[8] = target: rHuman ErbB2/Fc Chimera, CF (R&D Systems Cat#1129-ER) (human) (UniProt P04626); test: ECL (MSD) multispot binding assay, antigen spotted on plate, 20 nM Fab
[9] = target: rHuman Notch-1/Fc Chimera, CF (R&D Systems Cat#3647-TK) (human) (UniProt P46531); test: ECL Multispot (MSD), antigen spotted, Fab
[10] = target: rHuman HGF R/c-MET/Fc Chimera, CF (R&D Systems Cat#358-MT/CF) (human) (UniProt P08581); test: ECL Multispot (MSD), antigen spotted, Fab
[11] = target: Recombinant Human DLL4 (R&D Systems Cat#1506-D4/CF) (human) (UniProt Q9NR61); test: ECL Multispot (MSD), antigen spotted, Fab
[12] = target: rHuman IGF-1 sR, CF (R&D Systems Cat#391-GR) (human) (UniProt P08069); test: ECL Multispot (MSD), antigen spotted, Fab
[13] = target: rHuman Erythropoietin R/Fc Chimera, CF (R&D Systems Cat#963-ER) (human) (UniProt P19235); test: ECL multispot (MSD) binding assay, antigens spotted on plate, 20 nM Fab
[14] = target: rHuman Notch-1/Fc Chimera, CF (R&D Systems Cat#3647-TK) (human) (UniProt P46531); test: as above
[15] = target: rHuman Erythropoietin R/Fc Chimera, CF (R&D Systems Cat#963-ER) (human) (UniProt P19235); test: ECL multispot (MSD) binding assay, antigen spotted on plate, Fab 0.04 uM
[16] = target: rHuman Notch-1/Fc Chimera, CF (R&D Systems Cat#3647-TK) (human) (UniProt P46531); test: as above
[17] = target: rHuman CD44/Fc Chimera, CF (R&D Systems Cat#3660-CD) (human) (UniProt P16070); test: as above
[18] = target: rHuman HGF R/c-MET/Fc Chimera, CF (R&D Systems Cat#358-MT/CF) (human) (UniProt P08581); test: as above
[19] = target: rHuman IGF-1 sR, CF (R&D Systems Cat#391-GR) (human) (UniProt P08069); test: as above
[20] = target: human DLL4, full-length, expressed on the surface of CHO cells (human) (UniProt Q9NR61); test: cell-based or functional assay
[21] = target: rHuman P-Cadherin/Fc Chimera, CF (human) (UniProt P22223); test: ECL Multispot (MSD) assay; antigen spotted on plate, Fab in solution

Chain of rHuman Erythropoietin R/Fc Chimera, CF (R&D Systems Cat#963-ER) (human) (P19235 25-250, change not shown): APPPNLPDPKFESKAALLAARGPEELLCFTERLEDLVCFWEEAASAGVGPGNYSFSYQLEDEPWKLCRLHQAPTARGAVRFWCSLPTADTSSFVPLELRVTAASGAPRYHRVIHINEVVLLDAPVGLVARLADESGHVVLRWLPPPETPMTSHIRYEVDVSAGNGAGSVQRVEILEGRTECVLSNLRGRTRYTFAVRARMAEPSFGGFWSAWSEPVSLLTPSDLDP

ECL signal/blank ratio [9]: 2.8
ECL signal/blank ratio [10]: 3
ECL signal/blank ratio [11]: 3
ECL signal/blank ratio [12]: 2.5
Substance: Fab VH3-23_IGHD3-10*01>3_IGHJ6*01 Y110R & O12_IGKJ1*01

ECL multispot signal (ratio to blank; column not labelled) [14]: 2.5
Substance: Fab VH3-23_IGHD2-21*01>3_IGHJ6*01 H100E/S108P/Y113G Y110I & V2-13_IGLJ2*01

Notch1 luciferase reporter luminescence, T98G reporter cells + CHO-DLL4, 100 nM Fab, replicate 1 [20]: 2400
Notch1 luciferase reporter luminescence, T98G reporter cells + CHO-DLL4, 100 nM Fab, replicate 2 [20]: 2280
Notch1 luciferase reporter luminescence, T98G reporter cells + CHO-DLL4, 100 nM Fab, replicate 3 [20]: 2150
Notch1 luciferase reporter luminescence, T98G reporter cells + CHO-DLL4, 100 nM Fab, replicate 4 [20]: 2170
Substance: Fab VH1-46_IGHD6-6*01_IGHJ1*01 S102A/S103P/S104F/H111F I51V/N52L/S54T/G56H (APFF VLTH) & L6_IGKJ1*01 S28N/S30D/S31H S52L/A55S (NDH LS)

ECL signal [16]: 693
ECL signal [17]: 695
ECL signal [19]: 959
Substance: Fab VH5-51_IGHD5-18*01>3_IGHJ4*01 G100K/G104T (H:KT) & V3-4_IGLJ1*01 L92A

Further lines, the substance ahead of its results:

Substance: Fab VH3-23_IGHD3-10*01>3_IGHJ6*01 Y112P & O12_IGKJ1*01
ECL signal/blank ratio [1]: 0.9
ECL signal/blank ratio [2]: 1.1
ECL signal/blank ratio [3]: 1.1
ECL signal/blank ratio [4]: 1.1
ECL signal/blank ratio [5]: 1
ECL signal/blank ratio [6]: 0.8
ECL signal/blank ratio [7]: 1.4

Substance: Fab VH3-23_IGHD2-21*01>3_IGHJ6*01 H100E/S108P/Y113G Y114N & V2-13_IGLJ2*01
ECL multispot value [8]: 3.5

Substance: Fab VH3-23_IGHD2-21*01>3_IGHJ6*01 H100E/S108P/Y113G Y110T & V2-13_IGLJ2*01
ECL multispot signal (ratio to blank; column not labelled) [13]: 3.5
ECL multispot signal (ratio to blank; column not labelled) [14]: 2.3

Substance: Fab VH5-51_IGHD5-18*01>3_IGHJ4*01 G100K/G104T (H:KT) & V3-4_IGLJ1*01 G97A
ECL signal [15]: 528
ECL signal [16]: 660
ECL signal [17]: 642
ECL signal [18]: 1110
ECL signal [19]: 1030

Substance: Fab VH5-51_IGHD5-18*01>3_IGHJ4*01 G100K/G104T (H:KT) & V3-4_IGLJ1*01 G95A
ECL signal [16]: 707
ECL signal [18]: 999
ECL signal [19]: 1090

Substance: Fab VH5-51_IGHD5-18*01>3_IGHJ4*01 G100K/G104T (H:KT) & V3-4_IGLJ1*01 V91A
ECL signal [19]: 1030

Substance: Fab VH1-46_IGHD6-6*01_IGHJ1*01 S102A/S103P/S104F/H111F (APFF) & L6_IGKJ1*01 S28T
ECL signal [21]: 676

Substance: Fab VH1-46_IGHD6-6*01_IGHJ1*01 S102A/S103P/S104F/H111F (APFF) & L6_IGKJ1*01 S28Q
ECL signal [21]: 809
